# Legend:
# [1] = test system: T. gondii-infected HFF cells; test: FR235222 treatment and induction of BCLA (proteomics, western blot, immunofluorescence); assay type: cell-based, Toxoplasma gondii
# Experimental: Host cells and parasites culture. HFF primary cells (Bougdour et al., 2009), RAW264.7, L929, HCT116, A549 and HEK293 cells were cultured in Dulbecco's Modified eagle Medium (DMEM) (Thermo fischer Scientific, France) supplemented with 10% heat-inactivated fetal Bovine Serum (FBS) (Invitrogen), 10 mM (4-(2-hydroxyethyl)-1-piperazine ethanesulphonic acid) (HEPES) buffer pH 7.2, 2 mM L-glutamine and 50 μg/ml of penicillin and streptomycin (Thermo Fisher Scientific). Cells were incubated at 37° C. in 5% CO2. The following Toxoplasma strains were used in this study: type I (RH, GT1), type II (ME49), type III (CTG), atypical (COUG), Neospora caninum; RHΔku80 (Huynh and Carruthers, 2009), PruΔku80 (Fox et al., 2011), PruA7 (Saeij et al., 2007), COUGΔmyr1 (Hakimi, unpublished), PruΔku80Δbcla, PruΔku80-HF-BCLA and 76k-GFP-luc-Δbcla obtained in this study. All parasite strains were maintained in vitro by serial passage on monolayers of HFFs. T. gondii transfection. T. gondii RHΔku80, PruΔku80 and 76k-GFP-luc were electroporated with vectors in cytomix buffer (120 mM KCl, 0.15 mM CaCl2, 10 mM K2HPO4/KH2PO4, pH 7.6, 25 mM HEPES pH 7.6, 2 mM EGTA, 5 mM MgCl2) using a BTX ECM 630 machine (Harvard Apparatus). Electroporation was performed in a 2 mm cuvette at 1.100 V, 25Ω and 25 μF. Stable transgenic parasites were selected with 1 μM pyrimethamine, single-cloned in 96 well plates by limiting dilution and verified by immunofluorescence assay.
# FR235222 treatment and induction. FR235222 was provided by Astellas Pharma Inc. (Osaka, Japan) and dissolved into DMSO as described by Bougdour et al., 2009 and the final concentration in culture medium was either 25 ng/mL or 50 ng/mL. The media containing FR235222 was added to infected HFF cells 16 hours after infection for 24 h to 7 days.
# Immunofluorescence microscopy. Immunofluorescence assays on in vitro parasites were performed as described previously (Braun et al., 2013). In brief, T. gondii-infected HFF cells grown on coverslips or cysts purified from brains of mice were fixed in 3% formaldehyde for 20 min at room temperature, permeabilised with 0.1% (v/v) Triton X-100 for 15 min and blocked in phosphate-buffered saline (PBS) containing 3% (v/v) bovine serum albumin (BSA). For immunolabeling on histological sections of brains, the brain layers spotted on glass slides were first solvent-dewaxed using toluene for 3*10 min and absolute alcohol for 3*10 min. The slides were then treated with citrate buffer pH 6, heated at 100° C. during 1 hour, rinsed with water for 2*10 min and blocked in PBS containing 3% (v/v) bovine serum albumin (BSA). The cells or brain layers were then incubated for 1 hour with the primary antibodies indicated in the figures followed by the addition of secondary antibodies conjugated to Alexa Fluor 488 or 594 (Molecular Probes) at a 1:1,000 dilution for 1 hour. Nuclei of both host cells and parasites were stained for 10 min at room temperature with Hoechst 33258 at 2 μg/ml in PBS. Coverslips were mounted on a glass slide with Mowiol mounting medium, images were acquired with a fluorescence ZEISS ApoTome.2 microscope and images were processed by ZEN software (Zeiss).
# Western Blot. Proteins were separated by SDS-PAGE and transferred to a polyvinylidene fluoride membrane (Immobilon-P; EMP Millipore) by liquid transfer, and Western blots were probed using appropriate primary antibodies followed by phosphatase-conjugated goat secondary antibodies (Promega). Signals were detected using NBT-BCIP (Amresco).
# [2] = test system: TgHDAC3; conditions: low doses, RH strain; cited from earlier work
# [3] = Solubility of rBCLA recombinantly expressed in E. coli; assay type: physicochemical; conditions: native, N-terminal poly-histidine tag
# Experimental: Recombinant expression. Transformation was performed using BL21(DE3)-CodonPlus—RIL chemically competent E. coli (Stratagene) which were incubated on ice with 1 μg of the pet30-(a) Cter-BCLA plasmid for 10 minutes, heat shocked at 42° C. for 45 seconds, pre-incubated 45 min in LB at 37° C. then spread on a LB agar plate containing Kanamycin (Kan) and Chloramphenicol (Chlo) and incubated for 12 h. A single colony was then picked to inoculate a LB/Kan/Chlo 50 ml pre-culture grown for 16 h. 5 ml of grown pre-culture were then used to inoculate 1 L flasks of Terrific Broth medium (Formedium) containing Chlo/Kan. Cultures were grown at 37° C. until reaching an OD600 of 0.5-0.8 then induced by adding 0.7 mM IPTG (VWR) and further incubated at 18° C. ON. After incubation, cells were centrifuged 25 min at 3000 G, the supernatant was discarded and the pellet flash frozen in liquid nitrogen and kept at −80° C.
# Lysis. Purification was performed on 3 pellets of 1 L cultures, each resuspended in 50 ml of lysis buffer containing 600 mM NaCl, 50 mM Tris pH 8, 5 mM Beta-mercaptoethanol (BME), 0.2% w/v N-Lauryl Sarkozine and 1 Complete anti protease cocktail (Roche) tab per 50 ml. Lysis was performed using a 10 mini-pulsed sonication (15 sec ON, 30 sec OFF) at 50° amplitude over ice with the lysate never reaching a temperature over 13° C. […]
# [4] = test system: anti-T. gondii IgG antibodies of mice; test: Western-blot BCLA serological testing on mice sera; assay type: binding
# [5] = test system: trypsin, chymotrypsin, elastase and papain; test: Limited proteolysis of rBCLA; assay type: physicochemical; conditions: 1/30 w/w, up to 50 minutes at 37° C.
# Experimental: Limited proteolysis to find antigenic sub-fragments within Cter-BCLA. To recover a highly antigenic sub-fragment of Cter-BCLA, a limited proteolysis on the purified sample was undertaken using trypsin, chymotrypsin, elastase and papain (all Sigma Aldrich). Reactions were carried out in 30 μl reaction volume in 50 mM Tris pH 8.0, 150 mM NaCl, 5 mM BME and 0.5 mM MgCl2. In each reaction, 3 μg of Cter-BCLA were digested by 100 ng of protease (1/30 w/w) over the course of 50 minutes at 37° C. Reactions were stopped at each time point by the addition of 10 μl of SDS PAGE loading buffer followed by 5 minutes heating at 95° C. then kept on ice until loading on the gel.
# [6] = test system: anti-T. gondii IgG antibodies of mice; test: Western-blot BCLA serological testing on mice sera; assay type: binding; remark: listed apart in the source
# Experimental: Mice and Experimental Infection. 6-weeks-old BALBC/c, CBA, NMRI or Swiss mice were obtained from Janvier Laboratories (Le Genest-Saint-Isle, France). Mouse care and experimental procedures were performed under pathogen free conditions in accordance with established institutional guidance and approved protocols from the Institutional Animal Care and Use Committee of the University Grenoble Alpes (agreement no B3851610006). Female mice were used for all studies. For intraperitoneal (i.p.) infection, tachyzoites were grown in vitro and extracted from host cells by passage through a 27-gauge needle, washed three times in PBS, and quantified with a haemocytometer. Parasites were diluted in Hank's Balanced Salt Solution (Life), and mice were inoculated by the i.p. route with tachyzoites of each strain (in 200 μl) using a 28-gauge needle. For oral gavage of infective cysts, brains from chronically infected mice (76k-GFP-luc and 76k-GFP-luc-Δbcla) were crushed in PBS, the number of cysts was microscopically quantified and the mice were forced fed with 100 μl of brain homogenate containing 20 to 40 cysts using ball-tipped feeding needle. Blood was collected by caudal puncture or by intracardiac puncture when the mice were euthanised. Animal euthanasia was completed in an approved CO2 chamber. For histological analysis of ileum and immunolabeling on histological sections of brains or, the ilea and brains were removed from mice, entirely embedded in a paraffin wax block and cut in 5 μm-thick layers using microtome. For statistical analysis of mice survival data, the Mantel-Cox and Gehan-Breslow-Wilcoxon tests were used.
# Western-blot BCLA serological testing. Single western blot strips were prepared using 15 well 4-12% NuPage gels (Life technologies) loaded with 5 μl of sample at 0.1 mg/ml. The gels were run at 185 v for 40 minutes in MES buffer then electro-transferred at 105 v for 1.5 h on PVDF membranes. The transferred lanes were then cut-out into individualized strips. The strips were then blocked in TTBS with 5% powdered milk (w/v) for 1 h. Serum testing was then performed in TTBS with a dilution of 1/400 of the serum for 1 h at 4° C. The strips were then washed 3 times in TTBS and further incubated 1 h with a 1/7500 dilution of secondary antibody targeting either mouse IgGs or human IgGs and coupled with a phosphatase alkaline enzyme (Promega). […] Bands in the positive sera appear within 1 to 5 minutes. In parallel to the serum testing, a single strip was always used as an internal antigen control for each blot set. After blocking, this strip was incubated for 1 h with a peroxidase coupled anti poly-histidine monoclonal antibody (Sigma) diluted 1/2000 in TTBS. […] For each series of i.p. or orally infected mice, a serum of at least on mouse of each series was checked for Toxoplasma antibodies using Western blot analysis of the IgG immune response using the commercial kit LD bio Toxoplasma mouse IgG (LD bio), with the same anti-mouse IgG-alkaline phosphatase conjugate and chromogenic substrate previously described for BCLA.
molecule,measurement,setting,value
FR235222,BCLA protein induction (quantitative proteomics LC-MS/MS),"[1]; FR235222 90 nM versus DMSO 0.1%, type II (PruΔku80) strain in primary human fibroblasts",significantly induced
same,"BCLA signal intensity (western blot, ~140-kDa band)",[1]; FR235222 versus untreated tachyzoites,significantly increased
same,"BCLA signal intensity upon FR235222 (immunofluorescence, per PV)",[1]; type I (GT1 and RHΔku80) and haplogroup 11 (COUG) strains,rather moderate
same,"BCLA signal intensity upon FR235222 (immunofluorescence, per PV)","[1]; type II (PruΔku80, ME49, 76K-GFP-Luc) strain",very strong induction
same,"BCLA signal intensity upon FR235222 (immunofluorescence, per PV)",[1]; type III (CTG) strain,faint (if no) signal
same,in vitro tachyzoite to bradyzoite stage conversion,[2],induces
"rBCLA: C-terminal antigenic domain, res 1089-1275 of BCLA (SEQ ID NO:2), expressed in E. coli as recombinant protein (protein, Synthetic C-terminal antigenic domain (res 1089-1275)) MIPGVGDKTEASVLDSIENAVQKVLENLLKAAAGELQPAEAEEARLLVADLKAVVDTAEQVRVEGEAFFRASVDLYEAVKNLRDSEEKLRPLTKGELVDVVRQFLATQIFVQDRASAFLRVFERLAELLAAEQMKAVFAMVEEGVSSSERVARVAGELVPMMKKDRERRYGDLVAVTSWFMRRMEHI",solubility on expression in E. coli,[3],natively insoluble
same,reactivity of rBCLA with mice sera (immunoblot),"[4]; FIG. 8c: C57BL/6 mice, oral 47 cysts 76k-GFP-luc or 76k-GFP-luc-Δbcla (type II), 8 days (acute)",not reacting
same,reactivity of rBCLA with anti-T. gondii IgM and IgA,"[4]; mice sera, data not shown",not reacting
same,degradation by protease (SDS PAGE),[5]; chymotrypsin,quickly degraded
same,degradation by protease (SDS PAGE),"[5]; elastase, trypsin and papain, stable fragments around the 17-kDa marker",partially degraded
same,reactivity of rBCLA with mice sera (immunoblot),"[6]; FIG. 8a: NMRI mice, i.p. 10^4 tachyzoites COUG and COUG-Δmyr1, 7 days (acute)",not reacting
same,reactivity of rBCLA with mice sera (immunoblot),"[6]; FIG. 8b: CBA mice, i.p. 10^3 tachyzoites RH (type I), 7 days (acute)",not reacting
same,reactivity of rBCLA with mice sera (immunoblot),"[6]; FIG. 9a: Balb/c mice, i.p. 10^3 to 10^6 tachyzoites PruA7 (type II), 42 days",reacting quite proportionally
same,reactivity of rBCLA with mice sera (immunoblot),"[6]; FIG. 9b: CBA mice, i.p. 10^6 tachyzoites ME49 (type II), 80 days",strongly reacting
same,reactivity of rBCLA with mice sera (immunoblot),"[6]; FIG. 9c: NMRI mice, oral 20 cysts 76k-GFP-luc (type II), 22 months",strongly reacting
same,reactivity of rBCLA with mice sera (immunoblot),"[6]; FIG. 9e: CBA mice, i.p. 10^3 tachyzoites RH (type I) followed by pyrimethamine or sulfadiazine treatment, 22 days",very slightly reacting
same,reactivity of rBCLA with mice sera (immunoblot),"[6]; FIG. 9f: NMRI mice, i.p. 10^6 tachyzoites CTG (type III), 42 days",not reacting
same,reactivity of rBCLA with mice sera (immunoblot),"[6]; FIG. 9g: NMRI mice, i.p. 10^6 tachyzoites PruΔku80 (type II), 42 days",not reacting
same,reactivity of rBCLA with mice sera (immunoblot),[6]; FIG. 11a: Swiss mice i.p. infected with T. gondii PCR positive human amniotic fluid (confirmed congenital toxoplasmosis),strongly reacting
same,reactivity of rBCLA with mice sera (immunoblot),"[6]; FIG. 9h: Balb/c mice, i.p. 10^5 tachyzoites 76k-GFP-luc (type II), reactivating or not with corticosteroids, 42 days",strongly reacting
same,reactivity of rBCLA with mice sera (immunoblot),"[6]; FIG. 9d: Balb/c mice, i.p. 10^6 tachyzoites 76k-GFP-luc (type II), 21 days",strongly reacting
same,reactivity of rBCLA with mice sera (immunoblot),"[6]; FIG. 9d: Balb/c mice, i.p. 10^6 tachyzoites 76k-GFP-luc-Δbcla (type II), 21 days",barely reacting

# — patent publication US20220390449A1, “NEW S[…] FOR THE LATENT FORM OF TOXOPLASMOSIS” (INSERM (INSTITUT NATIONAL DE LA SANTÉ ET DE LA RECHERCHE …, priority 2019, published 2022)
